Measurements: paper PMC3212534, “Structural-Functional Characterization and Physiological Significance of Ferredoxin-NADP^+ Reductase from Xanthomonas axonopodis pv. citri” (PLoS ONE, 2011)

Key:
pea-FNR = biological target: T1, pea-FNR (Lathyrus oleraceus, UniProt P10933); assay: UV-visible difference spectroscopy; format: binding; details: 0.3 mM NADP+; Kd in Table 1 is quoted from reference 49
T1 construct: gene PETH; plastidic FNR; preparation not described here
T1 sequence (P10933 53-360): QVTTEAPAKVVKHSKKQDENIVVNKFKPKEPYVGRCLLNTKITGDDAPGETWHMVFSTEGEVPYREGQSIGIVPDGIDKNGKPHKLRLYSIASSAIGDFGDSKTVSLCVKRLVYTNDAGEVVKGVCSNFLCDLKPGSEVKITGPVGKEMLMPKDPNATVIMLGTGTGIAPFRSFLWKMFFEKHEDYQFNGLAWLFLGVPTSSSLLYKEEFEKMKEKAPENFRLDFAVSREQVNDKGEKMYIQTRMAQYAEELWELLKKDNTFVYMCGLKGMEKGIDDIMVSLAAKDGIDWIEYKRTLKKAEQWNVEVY

Xac-FNR = biological target: T2, Xac-FNR (Xanthomonas citri, UniProt A0AAI7ZED9); assay: difference absorption spectroscopy titration; format: binding; details: read-out: NADPH / K d
T2 construct: gene fpr; entire coding region in pET28a, N-terminal His6 tag cut with thrombin; expressed in E. coli BL21(DE3)pLysS; FAD-containing subclass I bacterial FNR
Source text: difference absorption spectroscopy titration on Xac-FNR

Ec-FNR = biological target: T3, Ec-FNR (Escherichia coli, UniProt P28861); assay: UV-visible difference spectroscopy; format: binding; details: 0.3 mM NADP+; Kd in Table 1 is quoted from reference 49
T3 construct: gene fpr; subclass II bacterial FNR; preparation not described here
T3 sequence (P28861 2-248): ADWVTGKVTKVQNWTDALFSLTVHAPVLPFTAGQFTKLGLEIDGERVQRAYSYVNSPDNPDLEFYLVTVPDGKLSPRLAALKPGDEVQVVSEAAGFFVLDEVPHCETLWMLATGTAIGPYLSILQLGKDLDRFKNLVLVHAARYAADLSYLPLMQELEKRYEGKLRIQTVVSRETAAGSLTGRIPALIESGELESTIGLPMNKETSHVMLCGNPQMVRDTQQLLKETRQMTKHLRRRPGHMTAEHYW

[1] = system: NC(=O)C1=CN([C@@H]2O[C@H](COP(=O)(O)OP(=O)(O)OC[C@H]3O[C@@H](n4cnc5c(N)ncnc54)[C@H](O)[C@@H]3O)[C@@H](O)[C@H]2O)C=CC1; assay: purified protein; details: 1 mM potassium ferricyanide as acceptor, 50 mM Tris-HCl pH 8.0, 30 °C
[2] = system: NC(=O)C1=CN([C@@H]2O[C@H](COP(=O)(O)OP(=O)(O)OC[C@H]3O[C@@H](n4cnc5c(N)ncnc54)[C@H](OP(=O)(O)O)[C@@H]3O)[C@@H](O)[C@H]2O)C=CC1; assay: purified protein; details: potassium ferricyanide as acceptor, 50 mM Tris-HCl pH 8.0, 30 °C

T2 sequence (A0AAI7ZED9 entry or part of it): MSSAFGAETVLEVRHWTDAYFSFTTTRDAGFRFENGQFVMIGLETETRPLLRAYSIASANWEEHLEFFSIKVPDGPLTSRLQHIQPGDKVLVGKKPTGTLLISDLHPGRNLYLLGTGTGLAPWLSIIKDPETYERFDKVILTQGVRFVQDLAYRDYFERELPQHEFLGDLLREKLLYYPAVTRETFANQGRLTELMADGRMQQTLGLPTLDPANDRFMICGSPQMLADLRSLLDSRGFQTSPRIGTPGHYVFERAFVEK

**Q.** How did the UV-visible difference spectroscopy (pea-FNR) turn out when `NC(=O)c1ccc[n+]([C@@H]2O[C@H](COP(=O)(O)OP(=O)(O)OC[C@H]3O[C@@H](n4cnc5c(N)ncnc54)[C@H](OP(=O)(O)O)[C@@H]3O)[C@@H](O)[C@H]2O)c1` [NADP^+] was run?
**A.** The UV-visible difference spectroscopy was “Differential UV-visible spectra elicited by the interaction between the enzymes and NADP^+”.

**Q.** And the Kd (Xac-FNR)?
**A.** The Kd was 9.7 ± 0.4 µM.

**Q.** And the UV-visible difference spectroscopy (Ec-FNR)?
**A.** The UV-visible difference spectroscopy was “Differential UV-visible spectra elicited by the interaction between the enzymes and NADP^+”.

**Q.** What does the source list for “Xac-FNR (Xanthomonas citri subsp. citri 306)”?
**A.** Km [1]: 3300 ± 1400 µM; kcat [1]: 3.2 ± 1.3 s⁻¹; kcat/Km [1]: 1000 M⁻¹ s⁻¹; Km [2]: 10.8 ± 0.5 µM; kcat [2]: 122 s⁻¹; kcat/Km [2]: 1.13e+07 M⁻¹ s⁻¹
